We go through one substance from patent US6262024.

This experiment addresses N-methyl-D-aspartate (NMDA) receptor (rat).

Substance neuron regulatory factor (NRF) from rat had an anterior thalamic neuron survival over controls of 700%.
